# Assay results: US20240270846A1 (published 2024)
# Target: T1, CD3 epsilon homodimer protein (UniProt P07766 23-126)
# T1 construct: also called CD3 (CD3 epsilon)
# Assay: SPR Biacore T200, antibody over immobilised CD3e homodimer;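 further: CD3 epsilon homodimer amine-coupled on a CM4 chip, run at 25 °C in HBS-EP+, Z = bound amount of each single-residue H chain variant over that of the parent antibody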
# T1 sequence (P07766 23-126): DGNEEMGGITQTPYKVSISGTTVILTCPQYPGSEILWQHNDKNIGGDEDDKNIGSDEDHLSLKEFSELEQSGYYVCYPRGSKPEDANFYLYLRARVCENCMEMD
row,Binder,ratio of amounts bound (Z=Y/X vs CE115HA000)
1,"CE115HA000 N53H one-arm antibody (antibody, human IgG1, kappa, L234A L235A, N297A, name in Kabat numbering, one-arm antibody) heavy: QVQLVESGGGVVQPGRSLRLSCAASGFTFSNAWMHWVRQAPGKGLEWVAQIKAKSHNYATYYAESVKGRFTISRDDSKNSLYLQMNSLKTEDTAVYYCRYVHYGAYYGVDAWGQGTTVTVSSASTKGPSVFPLAPSSKSTSGGTAALGCLVKDYFPEPVTVSWNSGALTSGVHTFPAVLQSSGLYSLSSVVTVPSSSLGTQTYICNVNHKPSNTKVDKKVEPKSCDKTHTCPPCPAPEAAGGPSVFLFPPKPKDTLMISRTPEVTCVVVDVSHEDPEVKFNWYVDGVEVHNAKTKPREEQYASTYRVVSVLTVLHQDWLNGKEYKCKVSNKALPAPIEKTISKAKGQPREPQVYTLPPSRCELTKNQVSLSCAVKGFYPSDIAVEWESNGQPENNYKTTPPVLDSDGSFFLVSKLTVDKSRWQQGNVFSCSVMHEALHNHYTQKSLSLSPDYKDDDDK EPKSSDKTHTCPPCPAPELLGGPSVFLFPPKPKDTLMISRTPEVTCVVVDVSHEDPEVKFNWYVDGVEVHNAKTKPREEQYNSTYRVVSVLTVLHQDWLNGKEYKCKVSNKALPAPIEKTISKAKGQPREPQVCTLPPSRDELTKNQVSLWCLVKGFYPSDIAVEWESNGQPENNYKTTPPVLDSDGSFFLYSKLTVDKSRWQQGNVFSCSVMHEALHNRYTQKSLSLSP light: DIVMTQSPLSLPVTPGEPASISCRSSQSLVHSNRNTYLHWYQQKPGQAPRLLIYKVSNRFSGVPDRFSGSGSGTDFTLKISRVEAEDVGVYYCGQGTQVPYTFGQGTKLEIKRTVAAPSVFIFPPSDEQLKSGTASVVCLLNNFYPREAKVQWKVDNALQSGNSQESVTEQDSKDSTYSLSSTLTLSKADYEKHKVYACEVTHQGLSSPVTKSFNRGEC",0.76
2,"CE115HA000 N54A one-arm antibody (antibody, human IgG1, kappa, L234A L235A, N297A, name in Kabat numbering, one-arm antibody) heavy: QVQLVESGGGVVQPGRSLRLSCAASGFTFSNAWMHWVRQAPGKGLEWVAQIKAKSNAYATYYAESVKGRFTISRDDSKNSLYLQMNSLKTEDTAVYYCRYVHYGAYYGVDAWGQGTTVTVSSASTKGPSVFPLAPSSKSTSGGTAALGCLVKDYFPEPVTVSWNSGALTSGVHTFPAVLQSSGLYSLSSVVTVPSSSLGTQTYICNVNHKPSNTKVDKKVEPKSCDKTHTCPPCPAPEAAGGPSVFLFPPKPKDTLMISRTPEVTCVVVDVSHEDPEVKFNWYVDGVEVHNAKTKPREEQYASTYRVVSVLTVLHQDWLNGKEYKCKVSNKALPAPIEKTISKAKGQPREPQVYTLPPSRCELTKNQVSLSCAVKGFYPSDIAVEWESNGQPENNYKTTPPVLDSDGSFFLVSKLTVDKSRWQQGNVFSCSVMHEALHNHYTQKSLSLSPDYKDDDDK EPKSSDKTHTCPPCPAPELLGGPSVFLFPPKPKDTLMISRTPEVTCVVVDVSHEDPEVKFNWYVDGVEVHNAKTKPREEQYNSTYRVVSVLTVLHQDWLNGKEYKCKVSNKALPAPIEKTISKAKGQPREPQVCTLPPSRDELTKNQVSLWCLVKGFYPSDIAVEWESNGQPENNYKTTPPVLDSDGSFFLYSKLTVDKSRWQQGNVFSCSVMHEALHNRYTQKSLSLSP light: DIVMTQSPLSLPVTPGEPASISCRSSQSLVHSNRNTYLHWYQQKPGQAPRLLIYKVSNRFSGVPDRFSGSGSGTDFTLKISRVEAEDVGVYYCGQGTQVPYTFGQGTKLEIKRTVAAPSVFIFPPSDEQLKSGTASVVCLLNNFYPREAKVQWKVDNALQSGNSQESVTEQDSKDSTYSLSSTLTLSKADYEKHKVYACEVTHQGLSSPVTKSFNRGEC",0.85
3,"CE115HA000 N53I one-arm antibody (antibody, human IgG1, kappa, L234A L235A, N297A, name in Kabat numbering, one-arm antibody) heavy: QVQLVESGGGVVQPGRSLRLSCAASGFTFSNAWMHWVRQAPGKGLEWVAQIKAKSINYATYYAESVKGRFTISRDDSKNSLYLQMNSLKTEDTAVYYCRYVHYGAYYGVDAWGQGTTVTVSSASTKGPSVFPLAPSSKSTSGGTAALGCLVKDYFPEPVTVSWNSGALTSGVHTFPAVLQSSGLYSLSSVVTVPSSSLGTQTYICNVNHKPSNTKVDKKVEPKSCDKTHTCPPCPAPEAAGGPSVFLFPPKPKDTLMISRTPEVTCVVVDVSHEDPEVKFNWYVDGVEVHNAKTKPREEQYASTYRVVSVLTVLHQDWLNGKEYKCKVSNKALPAPIEKTISKAKGQPREPQVYTLPPSRCELTKNQVSLSCAVKGFYPSDIAVEWESNGQPENNYKTTPPVLDSDGSFFLVSKLTVDKSRWQQGNVFSCSVMHEALHNHYTQKSLSLSPDYKDDDDK EPKSSDKTHTCPPCPAPELLGGPSVFLFPPKPKDTLMISRTPEVTCVVVDVSHEDPEVKFNWYVDGVEVHNAKTKPREEQYNSTYRVVSVLTVLHQDWLNGKEYKCKVSNKALPAPIEKTISKAKGQPREPQVCTLPPSRDELTKNQVSLWCLVKGFYPSDIAVEWESNGQPENNYKTTPPVLDSDGSFFLYSKLTVDKSRWQQGNVFSCSVMHEALHNRYTQKSLSLSP light: DIVMTQSPLSLPVTPGEPASISCRSSQSLVHSNRNTYLHWYQQKPGQAPRLLIYKVSNRFSGVPDRFSGSGSGTDFTLKISRVEAEDVGVYYCGQGTQVPYTFGQGTKLEIKRTVAAPSVFIFPPSDEQLKSGTASVVCLLNNFYPREAKVQWKVDNALQSGNSQESVTEQDSKDSTYSLSSTLTLSKADYEKHKVYACEVTHQGLSSPVTKSFNRGEC",0.68
4,"CE115HA000 N53K one-arm antibody (antibody, human IgG1, kappa, L234A L235A, N297A, name in Kabat numbering, one-arm antibody) heavy: QVQLVESGGGVVQPGRSLRLSCAASGFTFSNAWMHWVRQAPGKGLEWVAQIKAKSKNYATYYAESVKGRFTISRDDSKNSLYLQMNSLKTEDTAVYYCRYVHYGAYYGVDAWGQGTTVTVSSASTKGPSVFPLAPSSKSTSGGTAALGCLVKDYFPEPVTVSWNSGALTSGVHTFPAVLQSSGLYSLSSVVTVPSSSLGTQTYICNVNHKPSNTKVDKKVEPKSCDKTHTCPPCPAPEAAGGPSVFLFPPKPKDTLMISRTPEVTCVVVDVSHEDPEVKFNWYVDGVEVHNAKTKPREEQYASTYRVVSVLTVLHQDWLNGKEYKCKVSNKALPAPIEKTISKAKGQPREPQVYTLPPSRCELTKNQVSLSCAVKGFYPSDIAVEWESNGQPENNYKTTPPVLDSDGSFFLVSKLTVDKSRWQQGNVFSCSVMHEALHNHYTQKSLSLSPDYKDDDDK EPKSSDKTHTCPPCPAPELLGGPSVFLFPPKPKDTLMISRTPEVTCVVVDVSHEDPEVKFNWYVDGVEVHNAKTKPREEQYNSTYRVVSVLTVLHQDWLNGKEYKCKVSNKALPAPIEKTISKAKGQPREPQVCTLPPSRDELTKNQVSLWCLVKGFYPSDIAVEWESNGQPENNYKTTPPVLDSDGSFFLYSKLTVDKSRWQQGNVFSCSVMHEALHNRYTQKSLSLSP light: DIVMTQSPLSLPVTPGEPASISCRSSQSLVHSNRNTYLHWYQQKPGQAPRLLIYKVSNRFSGVPDRFSGSGSGTDFTLKISRVEAEDVGVYYCGQGTQVPYTFGQGTKLEIKRTVAAPSVFIFPPSDEQLKSGTASVVCLLNNFYPREAKVQWKVDNALQSGNSQESVTEQDSKDSTYSLSSTLTLSKADYEKHKVYACEVTHQGLSSPVTKSFNRGEC",0.78
